Source: the RNAGym collection of RNA variant scans (doi:10.1073/pnas.2313332121)

B1: TPR t1 (parent)
chain: GACCAAUCUGCCCUCAGAGCUCGAGAACAUCUUCGGAUGCAGAGGAGGCAGGCUUCGGUGGCGCGAUAGCGCCAACGUCCUCAACCUCCAAUGCAUCCCACCACAUGAUGAUGCCUGAAGAGCCUUGGUUUUUUG

Variants of: B1
Test: polymerase ribozyme fitness, log enrichment relative to wild type (log ratio); higher = more active; in vitro selection for triplet polymerase activity
Procedure, shortened: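 Both subunits of a heterodimeric triplet polymerase ribozyme were given their own mutant library, built by PCR and transcribed. Each library was annealed with a biotinylated primer, the partner subunit and triplets, incubated frozen at −7 °C, and its extended constructs gel-excised, captured on streptavidin beads and amplified by RT-PCR, all in one round done in triplicate. Fitness is the logarithm of genotype enrichment relative to wild-type enrichment, with replicates averaged by inverse-variance weighting. That logarithm is base 2, and Illumina-sequenced genotypes needed ≥10 input reads and ≥1 read per output.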

Row | Variant | polymerase ribozyme fitness (log ratio)
1 | GAGCAAUCUGACCUCAGAGCUCGAGAACAUCUUCGCAUGCAGAGGAGGCAGGCUUCGGUGGCGUGAUAGCGCCAACGUCCUCAACCUCCAAUGCAUCCCACCACAUGAUGAUGCCUGAAGAGCCUUGGUUUUUUG [C3G C11A G36C C64U] | -3.94
2 | GAGCAAUCUGCGCUCAGAGCUCGAGAACAUCUUCGGAUGCAGAGGAGGCAGGCUUCGGUGGCGCGAUAGCGCCAACGUCCUCAACCUCCAAUGCAUCCCACCACAUGAUGAUGCCUGAAGAGCCUUGGUUUUUUG [C3G C12G] | -0.885
3 | GAGCAAUCUGCCCUCAGAGCUCGAGAACAUCUUCGGAUGCAGAGGAGGCAGGCUUCGGUGGCGCGAUAGCGCCAACGUCCUCAACCUCCAAUGCAUCCCACCACAUGAUGAUGCCUGAAGAGCCUUGCUUUUUUG [C3G G128C] | -0.539
4 | GAGCAAUCUGCCCUCAGAGCUCGAGAACAUCUUCGGAUGCAGAGGAGGCAGGCUUCGGUGGCGCGAUAGCGCCAACGUCCUCAACCUCCAAUGCAUCCCACUACAUGAUGAUGCCUGAAGAGACUUGGUUUUUUG [C3G C102U C123A] | -2.99
5 | GAGCAAUCUGCCCUCAAAGCUCGAGAACAUCUUCGGAUGCAGAGGAGGCAGGCUUCGGUGGCGCGAUAGCGCCAACGUCCUCAACCUCCAAUGCAUCCCACCACAUGAUGAUGCCUGAACAGCCUUGGUUUUUUG [C3G G17A G120C] | -5.46
6 | GAGCAAUCUGCCCUCAGAGCUCGAGAACAUCUUCGGAUGCAGAGGAGGCAGGCUUCGGUGGCGCGAUAGCGCCAACGUCCUCAACCUCCAAUGCAUUCCACCACAUGAUGAUGCCUGAAGAGCCUUGGUUUUUUG [C3G C97U] | -2.53
7 | GAGCAAUCUGCCCUCAGAGCUCGAGAACAUCUUCGGAUGCAGAGGAUCCAGGCUUCGGUGGCGCGAUAGCGCCAACGUCCUGAACCUCCAAUGCAUCCCACCACAUGAUGAUGCCUGAAGAGUCUUGGUUUUUUG [C3G G47U G48C C82G C123U] | -1.92
8 | GAGCAAUCUGCCCUCAGAGCUCGAGAACAUCUUCGGAUGGAGAGGAGGCAGGCUUCGGUGGCGCGAUAGCGUCAACGUCCUCAACCUCCAAUGCAUCCCACCACAUGAUGAUGCCUGAAGGGCCUUGGUGUUUUG [C3G C40G C72U A121G U130G] | -0.331
9 | GAUCAAUCUGCCCUCAGAGCUCGAGAGCAUCUUCGGAUGCAGAGGAGGCAGGCUUCGGUGGCGCGAUAGCGCCAACGUCCUCAACCUCCAAUGCAUCCCACCACAUGAUGAUGCCUGAAGAGCCUUGGUUUUUUU [C3U A27G G135U] | -5.83
10 | GAGCAAUCUGCCCUCAGAGCUCGAGAACAUCUUCGGAUGCAGAGGAGGAAGGCUUCUGUGGCGUGAUAGCGCCAACGUCCUCAACCUCCAAUGCAUCCCACCACAUGAUGAUGCCUGAAUAGCCUUGUUUUUUUG [C3G C49A G57U C64U G120U G128U] | -1.81
11 | GAGCAAGCUGCCCUUAGAGCUCGAGAACAUCUUCGGAUGCAGAGGAGGCAGGCUGUGGUGGCGCGAUAGCGCCAACGUCCUCAACCUCCAAUGCAUCCCACCACAUGAUGAUGCCUGAAGAGCCUUGUUUUUUUG [C3G U7G C15U U55G C56U G128U] | -1.45
12 | GAGCAAUCUGCCCUCAGAGCUCGAGAACAUCUUCGGAUGCAGAGGAGGCAGGCUUCGGUCGCGCGAUAGCGCCAACGUCCUCAACAUCCAAUGCAUCCCACCACAUGAUGAUGCCUGAAGAGCCUUGGUUUUUUG [C3G G60C C86A] | -2.81
13 | GAGCAAUCUGCCCUCAGAGCUCGAGAACAUCUUCGGAUGCAGAGGAGGCAGGCUUUGGUGGCGCGAUAGCGCCAACGUCCUCAACCUCCAAGGCAUCCCACCACAUGAUGAUGCCUGAAGAGACUUGGUUUUUUG [C3G C56U U92G C123A] | -3.5
14 | GAGCAAUCUGUCCUCAGAGCUCGAGAACAUCUUCGGAUGCAGAGGAGGCAGGCUUCGGUGGCGCGAUAGCGCCAACGUCCUCAACCUCCAAUGCAUACCACCACAUGAUGAUGCCUGAACAGCCUUGGUUUUUUG [C3G C11U C97A G120C] | -5.66
15 | GAGCAAUCUGGCCUCAGAGCUCGAGAACAUCUUCGGAUGCAGAGGAGGCAGGCUUCGGUGGCGCGAUAGCGCCAACGUCCUCAACCUCCAAUGCAUGCCACCACAUGAUGAUGACUGAAGAGCCUUGGUUUUUUG [C3G C11G C97G C114A] | -4.68
16 | GAGCAAUCUGCCCUCAGAGCUCGAGAACAUCUUCGGAUGCAGAGGAGCCAGGCUUCGGUGGCGCGAUAGCGCCAACGUCCUCAACCGCCAAUGCAUCCCACCACAUGAUGAUGCCUGAAGAGCCUUGGUCUUUUG [C3G G48C U87G U130C] | -1.16
17 | GAGCAAUCUGCCCUCAGAGCUCGAGAACAUCUUCGGAUGCAGAGGAGGUAGGCUUCGGUGGCGCGAUAGCGCCAACGACCUCAACCUCCAAUGCAUCCCACCACAUGAUGAUGCAUGAAGAGCCUUGGUUUUUUG [C3G C49U U78A C115A] | -3.75
18 | GAUCACUCUGCCCUCAGAGCUCGAGAACAUCUUCGGAUGCAGAGGAGGCAGGCUCCGGUGGCGCGAUAGCGCCAACGUCCUCAACCUCCAAUGCAUCCCACCACAUGAUGAUGCCUGAAGAGCCUUGGUUUUUUG [C3U A6C U55C] | -1.74
19 | GAGCAAUCUGCCCUCAGAGCUCGAGAACAUCUUCGGAUGCAGAGGAGGCAGGCUUCGGUCGCGCGAUAGCGCCAACGUCCUCAACCUCCAAUGCAUCCCACCACAUGAUGAUGCCUGAAGAGCCUUGGUUUUUUG [C3G G60C] | -1.74
20 | GAUCGAUCUGCCCUCAGAGCUCGAGAACAUCUUUGGAUGCAGAGGAGGCAGGCUUCGGUGCGGCGAUAGCGCCAACGUCCUCAACCUCCAAUGUAUCCCACCACAUGAAGAUGCUUGAAGAGCCUUGGUUUUUUG [C3U A5G C34U G61C C62G C94U U109A C115U] | -6.29
21 | GAGCAAUCUGCCCUCAGAGCUCGAGAACAUCUUCGGAUGCACAUGAGGCAGGCUUCGGUGGCUCGAUAGCGCCAACGUCCUCAACCUCCAAUGCAUCCCACCACAUGAUGAUGCCUGAAGAGACUUGCUUUUUUG [C3G G42C G44U G63U C123A G128C] | -3.73
